Experiment [1] has as its target T1, PKG1β(h) (Homo sapiens, UniProt Q13976).
T1 construct: purchased Millipore (IC50 Profiler Express service)
T1 sequence (Q13976 1-686 isoform Q13976-2): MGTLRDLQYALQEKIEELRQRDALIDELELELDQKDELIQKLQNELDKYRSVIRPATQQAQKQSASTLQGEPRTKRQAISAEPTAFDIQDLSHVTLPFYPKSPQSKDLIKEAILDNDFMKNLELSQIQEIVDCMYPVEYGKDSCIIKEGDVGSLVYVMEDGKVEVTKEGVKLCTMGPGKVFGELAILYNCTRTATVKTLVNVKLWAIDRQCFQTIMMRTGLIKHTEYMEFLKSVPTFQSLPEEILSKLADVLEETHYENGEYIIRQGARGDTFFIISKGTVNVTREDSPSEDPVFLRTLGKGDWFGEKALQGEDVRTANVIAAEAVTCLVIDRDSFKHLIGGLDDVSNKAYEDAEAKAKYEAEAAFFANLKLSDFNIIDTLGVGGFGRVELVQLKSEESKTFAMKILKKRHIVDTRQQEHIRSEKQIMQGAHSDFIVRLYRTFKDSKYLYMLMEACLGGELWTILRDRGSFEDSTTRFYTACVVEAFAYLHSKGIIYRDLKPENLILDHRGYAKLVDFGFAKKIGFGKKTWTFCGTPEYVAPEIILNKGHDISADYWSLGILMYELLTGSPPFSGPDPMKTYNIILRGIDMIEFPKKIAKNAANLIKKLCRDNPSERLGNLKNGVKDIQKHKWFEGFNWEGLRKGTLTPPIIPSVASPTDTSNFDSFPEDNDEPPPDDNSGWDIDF
As to the kind of experiment: Kinase Profiling Assay. To be noted: 100 μM peptide. The experiment is classed as biochemical. The method in brief:
(§1)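 All 266 human kinases of a profiling service were assayed in duplicate to establish whether MK2 inhibitory peptides act specifically.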

Experiment [2] addresses T2, MKK6(h) (Homo sapiens, UniProt P52564).
T2 sequence (P52564 1-334): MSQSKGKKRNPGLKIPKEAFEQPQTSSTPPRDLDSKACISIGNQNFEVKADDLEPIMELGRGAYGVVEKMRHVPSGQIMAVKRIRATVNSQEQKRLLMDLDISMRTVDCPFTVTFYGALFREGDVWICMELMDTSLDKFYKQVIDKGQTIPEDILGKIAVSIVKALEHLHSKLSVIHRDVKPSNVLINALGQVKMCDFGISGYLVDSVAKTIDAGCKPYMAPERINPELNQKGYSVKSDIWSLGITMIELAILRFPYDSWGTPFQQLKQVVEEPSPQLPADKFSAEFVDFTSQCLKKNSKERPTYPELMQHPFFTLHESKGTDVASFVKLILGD
As to the kind of experiment: Kinase Profiling Assay. The experiment is classed as biochemical. As to conditions: 100 μM peptide. The method in brief:
as §1

Experiment [3] deals with AMPKα2(h) (Homo sapiens, UniProt P54646). As to the kind of experiment: Kinase Profiling Assay. It counts as biochemical. As to conditions: 100 μM peptide. The method in brief:
as §1

Experiment [4] addresses Yes(h) (Homo sapiens, UniProt P07947). As to the kind of experiment: Kinase Profiling Assay. It counts as biochemical. As to conditions: 100 μM peptide. The procedure, abridged: as §1
Experiment [5] deals with Tie2(h) (Homo sapiens, UniProt Q02763). Put plainly: Kinase Profiling Assay. The experiment is classed as biochemical. As to conditions: 100 μM peptide. The procedure, abridged: as §1
Experiment [6] addresses T3, PKCι(h) (Homo sapiens, UniProt P41743).
T3 construct: purchased Millipore (IC50 Profiler Express service)
T3 sequence (P41743 1-596): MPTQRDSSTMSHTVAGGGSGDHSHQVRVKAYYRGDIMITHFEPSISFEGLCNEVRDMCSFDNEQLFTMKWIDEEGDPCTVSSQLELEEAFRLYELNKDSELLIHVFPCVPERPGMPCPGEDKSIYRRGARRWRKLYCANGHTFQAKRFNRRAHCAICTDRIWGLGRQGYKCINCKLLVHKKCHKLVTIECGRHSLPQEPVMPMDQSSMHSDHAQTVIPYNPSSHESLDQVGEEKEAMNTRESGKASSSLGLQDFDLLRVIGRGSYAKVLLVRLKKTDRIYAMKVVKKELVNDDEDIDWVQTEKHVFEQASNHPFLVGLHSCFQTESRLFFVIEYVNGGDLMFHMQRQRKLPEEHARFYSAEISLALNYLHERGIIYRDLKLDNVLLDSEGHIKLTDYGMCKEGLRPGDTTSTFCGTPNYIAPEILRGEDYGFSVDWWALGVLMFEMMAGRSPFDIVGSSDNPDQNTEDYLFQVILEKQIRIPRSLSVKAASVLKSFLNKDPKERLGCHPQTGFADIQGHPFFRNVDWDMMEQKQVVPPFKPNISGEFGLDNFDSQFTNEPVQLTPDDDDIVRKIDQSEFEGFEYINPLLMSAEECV
As to the kind of experiment: Kinase Profiling Assay. It counts as biochemical. As to conditions: 100 μM peptide. The procedure, abridged:
as §1

The subject of experiment [7] is human fetal lung fibroblasts (IMR-90). As to the kind of experiment: TGF-β1-induced myofibroblast activation in IMR-90 cells, α-SMA immunoblot. It counts as cell-based. To be noted: 1 h pre-treatment, TGF-β1 2 ng/ml 48 h. The source says:
Cell lysates were immunoblotted against antibodies for α-SMA (a marker for myofibroblast activation) and GAPDH (loading control).
For orientation: In western blotting, separated proteins are transferred to a membrane and probed.

Experiment [8] deals with T4, CHK1(h) (Homo sapiens, UniProt O14757).
T4 sequence (O14757 1-476): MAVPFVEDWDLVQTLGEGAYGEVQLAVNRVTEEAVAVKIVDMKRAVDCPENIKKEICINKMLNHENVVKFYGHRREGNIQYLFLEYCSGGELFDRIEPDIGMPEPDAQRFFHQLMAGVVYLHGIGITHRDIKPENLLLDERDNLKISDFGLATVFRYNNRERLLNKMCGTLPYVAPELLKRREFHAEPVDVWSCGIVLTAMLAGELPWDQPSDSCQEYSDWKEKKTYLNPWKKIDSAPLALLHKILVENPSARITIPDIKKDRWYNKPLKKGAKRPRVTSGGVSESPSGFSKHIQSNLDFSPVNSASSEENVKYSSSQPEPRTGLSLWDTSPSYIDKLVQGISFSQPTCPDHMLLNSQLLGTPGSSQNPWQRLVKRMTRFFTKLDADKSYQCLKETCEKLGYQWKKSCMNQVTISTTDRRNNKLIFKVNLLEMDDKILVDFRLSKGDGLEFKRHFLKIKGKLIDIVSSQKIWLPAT
Put plainly: Kinase Profiling Assay. It counts as biochemical. As to conditions: 100 μM peptide. The procedure, abridged: as §1

The values below come from patent US10562947B2, “Compositions and methods for preventing or treating diseases, conditions or processes characterized by aberrant fibroblast proliferation and extracellular matrix deposition” (MOERAE MATRIX, INC., priority 2011, dated 2020).

Where a SMILES comes first, the peptide text is derived from it.

Chain of Tie2(h) (Q02763 23-1124): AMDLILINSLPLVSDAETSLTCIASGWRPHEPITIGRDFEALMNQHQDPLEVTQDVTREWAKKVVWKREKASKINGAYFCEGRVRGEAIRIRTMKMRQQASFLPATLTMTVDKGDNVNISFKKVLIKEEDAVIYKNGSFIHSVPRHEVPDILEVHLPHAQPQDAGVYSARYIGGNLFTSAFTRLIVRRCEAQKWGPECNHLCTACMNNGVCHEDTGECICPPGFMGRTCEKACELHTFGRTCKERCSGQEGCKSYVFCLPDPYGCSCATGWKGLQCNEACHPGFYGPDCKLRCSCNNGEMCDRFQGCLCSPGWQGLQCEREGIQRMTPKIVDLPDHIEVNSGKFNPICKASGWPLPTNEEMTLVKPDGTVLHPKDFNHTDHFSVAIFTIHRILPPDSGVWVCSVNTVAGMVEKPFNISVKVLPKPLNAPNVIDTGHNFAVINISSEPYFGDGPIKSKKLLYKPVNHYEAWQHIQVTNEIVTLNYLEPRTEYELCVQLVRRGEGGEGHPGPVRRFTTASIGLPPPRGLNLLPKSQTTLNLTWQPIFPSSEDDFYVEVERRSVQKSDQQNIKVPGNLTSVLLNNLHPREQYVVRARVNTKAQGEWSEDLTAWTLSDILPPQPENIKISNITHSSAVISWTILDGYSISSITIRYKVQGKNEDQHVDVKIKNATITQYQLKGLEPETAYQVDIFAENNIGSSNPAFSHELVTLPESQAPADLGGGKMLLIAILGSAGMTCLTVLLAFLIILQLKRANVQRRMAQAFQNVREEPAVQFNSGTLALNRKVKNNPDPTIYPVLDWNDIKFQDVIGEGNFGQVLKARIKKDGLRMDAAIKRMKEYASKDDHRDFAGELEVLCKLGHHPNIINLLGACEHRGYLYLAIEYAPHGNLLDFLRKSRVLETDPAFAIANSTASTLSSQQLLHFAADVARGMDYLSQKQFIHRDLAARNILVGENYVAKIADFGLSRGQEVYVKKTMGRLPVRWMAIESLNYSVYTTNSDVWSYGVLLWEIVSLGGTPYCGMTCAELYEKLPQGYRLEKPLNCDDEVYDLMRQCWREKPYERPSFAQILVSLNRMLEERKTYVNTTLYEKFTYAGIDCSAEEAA
Chain of AMPKα2(h) (P54646 whole entry): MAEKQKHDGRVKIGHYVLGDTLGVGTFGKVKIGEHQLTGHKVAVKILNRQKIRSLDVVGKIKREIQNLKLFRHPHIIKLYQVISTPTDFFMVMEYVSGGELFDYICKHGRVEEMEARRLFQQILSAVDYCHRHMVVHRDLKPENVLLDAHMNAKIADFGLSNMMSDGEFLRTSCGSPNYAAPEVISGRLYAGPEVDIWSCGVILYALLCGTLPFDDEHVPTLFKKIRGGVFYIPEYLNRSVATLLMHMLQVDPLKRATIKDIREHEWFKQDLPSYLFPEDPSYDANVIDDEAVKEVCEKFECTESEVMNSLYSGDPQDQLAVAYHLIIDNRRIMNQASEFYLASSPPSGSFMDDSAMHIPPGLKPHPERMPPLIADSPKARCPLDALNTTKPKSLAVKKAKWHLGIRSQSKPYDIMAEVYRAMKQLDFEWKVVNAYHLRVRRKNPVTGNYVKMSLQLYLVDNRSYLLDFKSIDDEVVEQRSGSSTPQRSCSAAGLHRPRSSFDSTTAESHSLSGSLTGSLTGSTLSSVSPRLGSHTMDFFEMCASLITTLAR
Chain of AMPKα2(h) (Q9Y478 whole entry partner): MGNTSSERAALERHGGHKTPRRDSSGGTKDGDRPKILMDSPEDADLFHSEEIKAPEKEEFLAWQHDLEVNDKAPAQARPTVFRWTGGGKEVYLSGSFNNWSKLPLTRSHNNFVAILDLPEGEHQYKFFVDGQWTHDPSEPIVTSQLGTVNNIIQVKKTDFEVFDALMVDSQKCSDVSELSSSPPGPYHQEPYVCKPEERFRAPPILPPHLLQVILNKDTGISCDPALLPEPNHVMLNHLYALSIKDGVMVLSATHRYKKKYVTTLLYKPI
Chain of AMPKα2(h) (P54619 whole entry partner): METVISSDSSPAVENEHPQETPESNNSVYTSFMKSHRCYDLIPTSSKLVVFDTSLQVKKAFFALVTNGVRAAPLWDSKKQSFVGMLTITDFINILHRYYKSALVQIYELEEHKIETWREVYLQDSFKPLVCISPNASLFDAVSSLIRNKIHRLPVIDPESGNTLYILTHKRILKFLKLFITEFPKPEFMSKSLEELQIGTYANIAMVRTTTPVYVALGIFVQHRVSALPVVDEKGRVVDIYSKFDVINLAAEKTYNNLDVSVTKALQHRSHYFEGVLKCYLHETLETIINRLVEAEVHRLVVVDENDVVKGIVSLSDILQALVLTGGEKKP
Chain of Yes(h) (P07947 whole entry): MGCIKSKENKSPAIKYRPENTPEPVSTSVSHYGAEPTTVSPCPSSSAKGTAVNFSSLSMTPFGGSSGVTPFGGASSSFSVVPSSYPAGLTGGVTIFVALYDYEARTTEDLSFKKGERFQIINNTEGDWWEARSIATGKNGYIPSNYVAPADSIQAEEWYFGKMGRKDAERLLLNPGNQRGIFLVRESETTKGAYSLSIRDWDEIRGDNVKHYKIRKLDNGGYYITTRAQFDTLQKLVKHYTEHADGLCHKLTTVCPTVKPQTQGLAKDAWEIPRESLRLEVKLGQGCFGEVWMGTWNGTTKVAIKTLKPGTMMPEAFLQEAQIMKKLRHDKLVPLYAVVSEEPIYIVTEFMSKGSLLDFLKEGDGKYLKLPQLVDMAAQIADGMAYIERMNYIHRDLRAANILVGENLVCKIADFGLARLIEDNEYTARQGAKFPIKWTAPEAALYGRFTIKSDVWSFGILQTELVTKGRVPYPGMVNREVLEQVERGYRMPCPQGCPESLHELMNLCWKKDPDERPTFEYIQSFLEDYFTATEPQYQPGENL

Take “YARAAARQARAKALNRQLGVA (Mammalian) [MMI-0200]”: the “PKG1β(h) % activity” value in experiment [1] stood at 57%. For the same molecule, the “MKK6(h) % activity” value in experiment [2] is recorded as 98%. In experiment [3], the “AMPKα2(h) % activity” value came to 88%. Moreover, the “Yes(h) % activity” value in experiment [4] turned out to be 93%. In addition, the “Tie2(h) % activity” value in experiment [5] turned out to be 53%. Besides, in experiment [6], the “PKCι(h) % activity” value is listed as 97%. Moreover, the “protein level of α-smooth muscle actin (α-SMA)” value in experiment [7] is recorded as “no changes in the protein level”.
Take “HRRIKAWLKKIKALARQLGVAA (Mammalian) [MMI-0500]”: the “CHK1(h) % activity” value in experiment [8] is given as 65%. Further, the “PKG1β(h) % activity” value in experiment [1] is recorded as 24%. For the same molecule, the “MKK6(h) % activity” value in experiment [2] worked out at 18%. Besides, in experiment [3], the “AMPKα2(h) % activity” value amounted to 9%. In addition, the “Tie2(h) % activity” value in experiment [5] is on record as 22%. In addition, the “PKCι(h) % activity” value in experiment [6] worked out at 7%.
For the molecule `CC(C)C[C@H](NC(=O)[C@H](C)NC(=O)[C@H](CCCCN)NC(=O)[C@H](C)NC(=O)[C@H](CCCNC(=N)N)NC(=O)[C@H](C)NC(=O)[C@H](CCC(N)=O)NC(=O)[C@H](CCCNC(=N)N)NC(=O)[C@H](C)NC(=O)[C@H](C)NC(=O)[C@H](C)NC(=O)[C@H](CCCNC(=N)N)NC(=O)[C@H](C)NC(=O)[C@@H](N)Cc1ccc(O)cc1)C(=O)N[C@@H](C)C(=O)N[C@@H](CCCNC(=N)N)C(=O)N[C@@H](CCC(N)=O)C(=O)N[C@@H](CC(C)C)C(=O)NCC(=O)N[C@H](C(=O)N[C@@H](C)C(=O)N[C@@H](C)C(=O)O)C(C)C` [MMI-0100] (H-YARAAARQARAKALARQLGVAA-OH; N-terminus and C-terminus assumed), the “protein level of α-smooth muscle actin (α-SMA)” value in experiment [7] is “decreases in the levels”.
On to KAFAKLAARLYRKALARQLGVAA [MMI-0400], for which, in experiment [8], the “CHK1(h) % activity” value came to 87%. Besides, the “PKG1β(h) % activity” value in experiment [1] was found to be 53%. The “MKK6(h) % activity” value in experiment [2] worked out at 44%. Also, the “AMPKα2(h) % activity” value in experiment [3] is 58%. Besides, the “Yes(h) % activity” value in experiment [4] turned out to be 14%. Besides, the “Tie2(h) % activity” value in experiment [5] is on record as 21%. Also, the “PKCι(h) % activity” value in experiment [6] came to 46%.
For FAKLAARLYRKALARQLGVAA [MMI-0300], the “CHK1(h) % activity” value in experiment [8] is 91%. The “PKG1β(h) % activity” value in experiment [1] was found to be 50%. In experiment [2], the “MKK6(h) % activity” value came out at 48%. In experiment [3], the “AMPKα2(h) % activity” value is recorded as 54%. In addition, the “Yes(h) % activity” value in experiment [4] worked out at 67%. For the same molecule, the “Tie2(h) % activity” value in experiment [5] stood at 26%. The “PKCι(h) % activity” value in experiment [6] was found to be 68%.
